In patent publication US5990275:

Tests used:
[1] = target: TAG-72 antigen on a human breast carcinoma extract (human); assay: competition RIA against 125I-labeled CC49 IgG, human breast carcinoma extract

| Substance | fold lower affinity than the CC49/212 sFv [1] | half-life (t1/2) of intact sFv, reverse phase HPLC (CC49/212 single-chain Fv) |
| --- | --- | --- |
| CC49/218 single-chain Fv (scFv) | 4 fold | – |
| subtilisin BPN' (Type XXVII protease, Sigma) (from UniProt P00782) (enzyme) | – | 2.05 h |
| trypsin (enzyme) | – | 3.26 h |
